Measurements reported in paper PMC4346194.

Experiments:
[1] = target: GST-tagged FL-importin α7 (human) (UniProt O60684); assay: pull-down
[2] = target: GST-tagged FL-importin α1 (mouse) (UniProt P52293); assay: pull-down

Substance: MBP-tagged PB2-NLD-K718A (from UniProt P31345 678-759) (domain or fragment)
- percent of importin α bound to cargo [1]: 43%
- percent of importin α bound to cargo [2]: 20%
